Results: the supplement of paper PMC10724198
± gives the standard deviation of the averaged measurements.

test system: Saccharomyces cerevisiae; experiment: protein stability index of tFT-peptide fusion (C-terminal peptide) (PSI (0-1 scale)); higher = more stable (slower turnover); conditions: genetic background: wild type; temperature: 30 C
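Further: PSI is a weighted mean of sequencing reads over stability bins, variants kept only with over 10 reads, mCherry proximal and sfGFP distal, peptide attached via GGGS linker.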

Sequence	protein stability index
VPWVFVYGEGVR	0.734 ± 0.024
VPYLPPHLPLPP	0.71 ± 0.043
VQASQFRFSVPL	0.632 ± 0.013
VQAWYWGFFCST	0.785 ± 0.036
VQPAGLEFGPLS	0.6457 ± 0.0015
VQSVIEPSIRYA	0.648 ± 0.014
VRCSLPSPSPRP	0.77 ± 0.015
VRDGPRCPVACP	0.621 ± 0.02
VREMGSPGLYRP	0.713 ± 0.01
VRFRCIPGSPVC	0.643 ± 0.0094
VRFVVVRRFRLP	0.649 ± 0.0076
VRGKYNNGNKKM	0.675 ± 0.013
VRGMGGIGRCVG	0.657 ± 0.074
VRGRGSGGGVAG	0.675 ± 0.065
VRGVCGVGFGVW	0.604 ± 0.046
VRHYSSNFAPFI	0.676 ± 0.025
VRIGSEGPGREE	0.677 ± 0.03
VRLHVPLQRFMK	0.73 ± 0.029
VRLIQLLFTLRT	0.53 ± 0.062
VRLRGEGCGWGG	0.7158 ± 0.0022
VRQKTPREQRVY	0.701 ± 0.059
VRQRADSCEAHA	0.659 ± 0.056
VRQSCGSRGFFF	0.729 ± 0.023

Sequence	protein stability index
VRRAGVGEGITG	0.671 ± 0.052
VRRGGGGGGYGI	0.72 ± 0.031
VRRGGRARRRGS	0.698 ± 0.016
VRRHPQYPLLRV	0.541 ± 0.0099
VRSLLGLPLPGL	0.788 ± 0.041
VRSSLDGDGLCG	0.6869 ± 0.0046
VRTSGRCCPTGP	0.641 ± 0.036
VRVFLSNALFHH	0.596 ± 0.019
VRWCLPPLFTPL	0.693 ± 0.059
VRWGVVGVQGNW	0.678 ± 0.021
VRYGSHRNMSLL	0.819 ± 0.053
VSDLGRFVDRRV	0.636 ± 0.029
VSEFTSHQYDSE	0.746 ± 0.048
VSGASHLCQYIK	0.724 ± 0.072
VSGFEGCYFSDL	0.712 ± 0.039
VSGFFFWRSSFV	0.678 ± 0.028
VSGLRRLVAFAR	0.518 ± 0.0061
VSGVVHRVVVSR	0.7 ± 0.043
VSLGNVGYFGSE	0.734 ± 0.039
VSLLSLRAFYKL	0.667 ± 0.05
VSLSPVFLGFYR	0.706 ± 0.024
VSLVGGLGFGVG	0.553 ± 0.028
VSQLGTYICSYL	0.687 ± 0.053

Sequence	protein stability index
VSRACYTPPQFY	0.68 ± 0.13
VSRCHLLDLSLV	0.642 ± 0.024
VSRGHTEWVGMV	0.702 ± 0.11
VSRWVVCRGGLW	0.65 ± 0.078
VSSVVTTSAIKR	0.715 ± 0.027
VSTPSPPSDSTP	0.685 ± 0.051
VSTRSTVVVSSL	0.662 ± 0.02
VSVIPIVISLSL	0.528 ± 0.036
VSVRGREGLDWK	0.698 ± 0.019
VSVSDSKMARLG	0.676 ± 0.055
VSVSRGTNCCYD	0.686 ± 0.023
VSVSSFCVLQSC	0.547 ± 0.008
VSWGVALAVLRT	0.603 ± 0.029
VSYEFHTRVSKN	0.677 ± 0.039
VSYEGIVKDGSG	0.647 ± 0.083
VTDTFKFYCERL	0.7274 ± 0.0051
VTFFAFPLFFGF	0.602 ± 0.041
VTHSASFSDVFR	0.731 ± 0.034
VTKESPSLCLCV	0.588 ± 0.041
VTLGLSMVQWTY	0.5702 ± 0.0025
VTLRASGQVFPF	0.7891 ± 0.0069
VTMQEKTCQLEA	0.705 ± 0.1
VTRGGRVFIVDL	0.807 ± 0.094

Sequence	protein stability index
VVELRGEKLVGR	0.6784 ± 0.005
VVEYCEGKAVYF	0.695 ± 0.025
VVFISGVYCSRL	0.688 ± 0.1
VVFTTLRHPFRG	0.699 ± 0.027
VVGCCVTKGGGA	0.667 ± 0.048
VVGRLRGNWGSI	0.745 ± 0.039
VVGWGWGGVVRR	0.763 ± 0.02
VVIGCRRVLGCV	0.583 ± 0.03
VVLFFGPRWSLG	0.624 ± 0.068
VVLSASAALFTF	0.578 ± 0.029
VVLWGAVSIVRT	0.616 ± 0.028
VVPDSGESSASG	0.654 ± 0.098
VVVARGGEEGWW	0.656 ± 0.12
VVVLCGGSGGVG	0.652 ± 0.059
VVVSGGGAGFWL	0.728 ± 0.019
VVWGGWGGWGCW	0.81 ± 0.17
VVYWGFVLGFGA	0.582 ± 0.055
VWGERPRFGGWG	0.691 ± 0.038
VWGGGRGGGGKG	0.619 ± 0.031
VWGGNGRAASQL	0.742 ± 0.019
VWGLGWEFWWGV	0.7157 ± 0.0021
VWIGMSLSSLVM	0.512 ± 0.011
VWLSRLVFLSPL	0.602 ± 0.0046

Sequence	protein stability index
VWRGCRVGGQGM	0.687 ± 0.042
VWRGPVVAAGWG	0.659 ± 0.018
VWRSERCRRGGV	0.699 ± 0.15
VWSGGDGGGAVV	0.733 ± 0.051
VWSILSCRTRLL	0.503 ± 0.02
VWSPGGGAFVGG	0.815 ± 0.047
VWTPWSTKDCLG	0.721 ± 0.054
VYDASLPIRFFL	0.697 ± 0.013
VYFLDPSSPPWF	0.752 ± 0.011
VYRGSQKQRAQG	0.685 ± 0.024
VYRIAEENRRWV	0.738 ± 0.12
VYRMYTLKRVKR	0.686 ± 0.062
WAGQWCRGRAGG	0.728 ± 0.056
WAIYPDVESVIP	0.773 ± 0.0081
WALLAAGGGGRG	0.651 ± 0.074
WARLHLSGRYSL	0.747 ± 0.02
WAVGRGLVLSST	0.684 ± 0.042
WCECGVWGGLWG	0.719 ± 0.021
WCGKVVVGSRQG	0.68 ± 0.032
WCLVTRGGDRDL	0.6727 ± 0.0047
WCRHREYFYGSN	0.657 ± 0.032
WCSVGVSGFVIR	0.725 ± 0.0075
WDGWPTRSGGTG	0.738 ± 0.023

Sequence	protein stability index
WDSPVMCVTIID	0.628 ± 0.0094
WDYQGIIFVAGG	0.687 ± 0.0075
WEQQTSLPLLSL	0.712 ± 0.021
WFAGRDRHRAND	0.745 ± 0.1
WFCDNHRSFGWG	0.747 ± 0.07
WFFPPLPPPLPR	0.686 ± 0.04
WFLCCFGGVSLV	0.619 ± 0.0064
WFLFIPLACLRP	0.592 ± 0.0079
WFLVQQCGQMDR	0.711 ± 0.022
WFNRRISPISGI	0.676 ± 0.059
WFSRVSSASRRS	0.7073 ± 0.00084
WGACSALRRLGY	0.684 ± 0.044
WGAGGGGWGGGV	0.685 ± 0.024
WGEGCGSSEEGE	0.695 ± 0.087
WGFVCWGCGGCS	0.746 ± 0.028
WGGEVGQLLELW	0.714 ± 0.048
WGGGCGRRIGCR	0.7193 ± 0.007
WGGGGGGSGACL	0.6974 ± 0.0069
WGGGPGLRVVGG	0.731 ± 0.026
WGGGRGTAVVGV	0.657 ± 0.028
WGGRSVGGVVWR	0.714 ± 0.036
WGLCIGTGWALG	0.708 ± 0.0092
WGLGLYEENTGC	0.7468 ± 0.003

Sequence	protein stability index
WGRCGSVGRGGA	0.749 ± 0.024
WGRGHPIYVCRV	0.689 ± 0.013
WGRRCRFIFRGM	0.654 ± 0.074
WGSSGCLFGTVG	0.769 ± 0.12
WGSSGWVGEGGG	0.657 ± 0.044
WGTGGRRGVGHV	0.709 ± 0.066
WGVGWSGRVGGS	0.647 ± 0.045
WGWGVASRCCEG	0.72 ± 0.042
WGYWGGVMGLEE	0.738 ± 0.043
WHDLDRGSFRAV	0.669 ± 0.023
WITAYFPLHSSE	0.714 ± 0.036
WLCGSIGHAMLG	0.739 ± 0.062
WLFDFECRCILG	0.65 ± 0.11
WLFDRLPFNAEN	0.715 ± 0.046
WLFRGELCGGAN	0.588 ± 0.014
WLGAYVRAWSVA	0.533 ± 0.0011
WLGGGGGMQGVR	0.669 ± 0.057
WLRTGNVLQELL	0.699 ± 0.03
WLVCGRSFVFTL	0.549 ± 0.058
WLVFRISLLRFD	0.541 ± 0.026
WLVRHLGFVPWI	0.7 ± 0.028
WLWLGFNRVFFY	0.511 ± 0.033
